In experiment [1] the target is RC4C: Rba. sphaeroides reaction centre with SpyCatcherΔ attached to the N-terminus of PufL via a four residue linker (Rhodobacter sphaeroides) (UniProt P0C0Y9).
The target in experiment [2] is RCC: Rba. sphaeroides reaction centre with SpyCatcherΔ attached directly to the N-terminus of PufL (Rhodobacter sphaeroides) (UniProt P0C0Y9).
Experiment [3] addresses wild-type (WT) reaction centre (RC) of Rhodobacter sphaeroides (Rhodobacter sphaeroides) (UniProt P0C0Y8).
The target of experiment [4] is RCC: Rba. sphaeroides reaction centre with SpyCatcherΔ attached directly to the N-terminus of PufL (Rhodobacter sphaeroides) (UniProt P0C0Y9). This is another data set of the same source.

On to “Td-dLHCII: SpyTagΔ added to the N-terminus of the truncated A. thaliana Lhcb1”, for which, in experiment [1], the E (P870): apparent energy transfer efficiency from the rate of RC P870 photobleaching (650 nm excitation), RC#LHCII chimera in solution is 21% and the EFL: apparent energy transfer efficiency from quenching of LHC emission, RC#LHCII chimera in solution worked out at 20.3%.
In experiment [2], “Td-LHCI-Td: A. thaliana LHCI heterodimer of SpyTagΔ-adapted Lhca1 (Td-L1) and SpyTagΔ-adapted Lhca4 (Td-L4) (complex)” came in with an Ea1: efficiency of energy transfer to the Lhca1-connected RC in the RC#LHCI#RC chimera, from E (P870) (Eq. 5) of 13.9% and an Ea1: efficiency of energy transfer to the Lhca1-connected RC in the RC#LHCI#RC chimera, from EFL (Eq. 5) of 10.4%. For the same substance, in experiment [3], the E (P870): apparent energy transfer efficiency from the rate of RC P870 photobleaching (650 nm excitation), mixture in solution (molar ratio of RC to LHC two) was determined as 3.3% and the EFL: apparent energy transfer efficiency from quenching of LHC emission, mixture in solution was 9.3%. In addition, in experiment [4], the E (P870): apparent energy transfer efficiency from the rate of RC P870 photobleaching (650 nm excitation), RC#LHCI#RC chimera in solution came to 29.1% and the EFL: apparent energy transfer efficiency from quenching of LHC emission, RC#LHCI#RC chimera in solution was 27.4%.
In the case of “LHCII-T: full SpyTag sequence added to the C-terminus of the full A. thaliana Lhcb1”, in experiment [3], the E (P870): apparent energy transfer efficiency from the rate of RC P870 photobleaching (650 nm excitation), mixture in solution worked out at 1.2% and the EFL: apparent energy transfer efficiency from quenching of LHC emission, mixture in solution was 0.8%. Also, in experiment [4], the E (P870): apparent energy transfer efficiency from the rate of RC P870 photobleaching (650 nm excitation), LHCII#RC chimera in solution is 22.8% and the EFL: apparent energy transfer efficiency from quenching of LHC emission, LHCII#RC chimera in solution came to 19.6%.
In the case of “LHCI-Td: A. thaliana LHCI heterodimer of unadapted Lhca1 (L1) and SpyTagΔ-adapted Lhca4 (Td-L4) (from UniProt Q01667 36-241) (complex)”, in experiment [2], the Ea4: apparent energy transfer efficiency for the LHCI#RC chimera, from E (P870) was determined as 20.1%. Also, in experiment [3], the E (P870): apparent energy transfer efficiency from the rate of RC P870 photobleaching (650 nm excitation), mixture in solution was 1.3% and the EFL: apparent energy transfer efficiency from quenching of LHC emission, mixture in solution was 10.3%. Further, in experiment [4], the E (P870): apparent energy transfer efficiency from the rate of RC P870 photobleaching (650 nm excitation), LHCI#RC chimera in solution is 20.2% and the EFL: apparent energy transfer efficiency from quenching of LHC emission, LHCI#RC chimera in solution worked out at 20.7%.

For the origin of these results see paper PMC7093453.
